The target in the data set is ILF3 dsRBD;hnRNPC dsRBD (Homo sapiens;Homo sapiens, UniProt Q12906;P07910 398-590;16-57, |). Kind of data set: EMSA; both proteins pooled; simultaneous binding; 1 uM labelled RNA, 3 uM protein, 10 ul, on ice 45 min; 6% PAGE in 0.5x TBE (gel pre-run at 4 C); binding buffer, salt and pH not stated (proteins dialyzed in 25 mM Tris-HCl pH 8.0, 150 mM NaCl; final elution from cation exchange/heparin up to 1 M NaCl, then SEC). The settings on record: protein: recombinant;recombinant, tags: N-terminal GST (pGood6p), removed with TEV;10xHis (pSUMOH10), label: 5' DY781.

Regarding AGUGGCUUAUGCCUGUGAUCCCAACAC (ssRNA, A-to-I editing site represented by G as printed (A/G); inosine not stated) [edited RNA], the binding result is listed as “binds”.

The values are drawn from publication PMC9351184, “Survey of the binding preferences of RNA-binding proteins to RNA editing events”.
